Data as given in the nanobody polyreactivity screen of Harvey et al. (2022).

Experiment: yeast display, Sf9 membrane polyspecificity reagent, FACS + sequencing; frameworks hold sequencing errors
Outline: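 Galactose induction of a Saccharomyces cerevisiae BJ5465 synthetic nanobody display library ran 36–48 hours. The cells were then stained for 1 hour at 4 °C with 10% biotinylated, detergent-solubilized Sf9 membrane reagent, pulled down on streptavidin microbeads and FACS-sorted into low and high (top ~1%) gates on expression and reagent-binding fluorescence. Labels for polyreactivity follow the gate of origin.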

## QVQLVESGGGLVQAGGSLRLSCAASGRTFFPYAMGWYRQAPAKEREFVAAITKTDDSTYYADSVKGRFTISRDNAKNTVYLQMNSLKPEDTAVYYCNAGDTQIRFYYWGQGTQVTVSS
  polyreactivity (PSR sort gate): low polyreactivity

## QVQLEESGGGLVQAGGSLRLSCAASGSIFGANAMAWYRQAPGKERDLVAAITTSGGSTFYADSVKGRFTISRDNAKNTVYLQMNCLKPEDNAVYYCAAEWVYSIKSVYIYEMYYWGQGTQVTVSS
  polyreactivity (PSR sort gate): low polyreactivity

## QVQLVESGGGLVQAGGSLRLSCAASGSIFGAYAMGWYRQAPGKERELVASITGNGGSTYYADSVKGRFTISRDNAKNTVYLQMNSLKPEDTAVYDCAADDYSTRYRWFYYGSPYYYWGQGTQVTVSS
  polyreactivity (PSR sort gate): high polyreactivity

## QVQLVDSRGGLVQAGGSLRLSCAASGRTFYRYAKGWDRPAPGKERDLVAVITSGSRTKYADSVKGRFTISRDTAKITVYLQMKSLKPEDTAVYSCAARGLALEGKSSGEYWGQGTQVTVSS
  polyreactivity (PSR sort gate): high polyreactivity

## QVQLVESGGGLVQAGGSLRLSCAASGRIFWYNAMGWYRPAPGKERELVASITRGNNTYYADSVKGRFTISRDNAKTTVYLQMNSLKPEDTAVYYCAKRYIYRYYWGQGTQVTVSS
  polyreactivity (PSR sort gate): high polyreactivity

## QVQLVESGVGLDQAGGSLRLSCAASGFTFYSNAMGWYRQAPGKERELVAAITGRGGRTYYADSVKGRFTISRDNAKNTVYLLMNSLKPEDTAVYYCAAVYHVSTWGGRYYFRQGYDYWGQGTQVTVSS
  polyreactivity (PSR sort gate): high polyreactivity

## QVQLVESGGGLVQAGGSLRLSCAASGSILGINVMGWYRQAPGKERELVAAISWRGGRTYYADSVKGRFTISRDNAKNTVYLQMNSLKPEDTAVYYCAAYFYSTSYGADRGVDYWGQGTQVTVSS
  polyreactivity (PSR sort gate): high polyreactivity

## QVQLVESGGGLVQAGGSLRLSCAASGSIFNPYAMGWYRQAPGKERELVAVIRSRGDRTYYADSVKGRFTISRDYAKNTVYLQMNSLKPEDTAVYYCAVRAQESLWKQYYYWGQGTQVTVSS
  polyreactivity (PSR sort gate): high polyreactivity

## QVQLVESGGGLVQAGGSLRLSCAASGSTFYYYARGWYRQAPGKERELVAAISTSDGSTYYADSVKGRFTISRDNAKNTVYLQMNSLKPEDTAVYYCAADSYERFASYYYWGQGTQVTVSS
  polyreactivity (PSR sort gate): low polyreactivity

## QLQLVDSGGGVVQAGGSLRLSCAASGSTYAQYVMGWYRPATGKEKELVAAISLSGGSTYYAASVKGRFTISRDNAKNTVYLQMNSLKPVDTAVYYCSARGYGPGLYSSRQNEYYYWGQGTQVTVSS
  polyreactivity (PSR sort gate): high polyreactivity

## QVQLVESGGGLVQAGGSLRLSCAASGSTFWRYAMGWYRQAPGKERELVAAISRSGGSTYYADSVKGRFTISRDNAKNTVYLQMNSLKPEDTAVYYCAAQYGGKYKLYSDSYAMDYWGQGTQVTVSS
  polyreactivity (PSR sort gate): high polyreactivity

## QVQLVESGGGLVQAGGSLRLSCAASGFTFYLNAMGWYRQAPGKERELVAAITGSGDDTYYADSVKGRFTISRDNAKNTVYLQMNSLKPEDTAVYYCAADVSYWYDYWGQGTQVTVSS
  polyreactivity (PSR sort gate): high polyreactivity

## QVQLVESGGGLVQAGGSLRLSCAASGSTFYAYAMGWYRQAPGKERELVAAIDSGGSTYYADSVKGRFTISRDNAKNTVYLQMNSLKPDDTAVYYCAVRHRYTRAYWGRDYWGQGTQVTVSS
  polyreactivity (PSR sort gate): low polyreactivity

## QVQLVESGGGLVQAGGSLRLSCAASGFTFSRYAMGWYRQAPGKERELVAAITSGGSTYYADSVKGRFTISRDNAMNTVYLQMNSLKPEDTAVYYCAVGVAEFFGYGYWGQGTQVTVSS
  polyreactivity (PSR sort gate): high polyreactivity

## QVQLVESGGGLVQAGGSLRLSCAASGRIFFVYAMGWYRQAPGKERELVASITGGGSTNYADSVKGRFTISRDNAKNTVYLQMNSLKPEDTAVYYCAADIHSTRVFPEYPSGYDYWGQGTQVTVSS
  polyreactivity (PSR sort gate): low polyreactivity

## QVQLVESGGGLVQAGGSLRLTCAASGSTFSANAMGWYRPGPGKERELVAGISRSGGRTYYADSVKGRFTISRDNAKNTVYLQMNSLKPEDTAVYFCNDRRRGAGGYDYWGQGTQVTVSS
  polyreactivity (PSR sort gate): high polyreactivity

## QVQLVESGGGLVQAGGSHRLSCAASGRIFDDNALGWYCQAPGKERELVAAITGGGRTNYADSVKGRFTISRDNAKNTVYLQMNSLKPEDTAVSYCAAATYGWVIYIYDYWGQGTQVNVSS
  polyreactivity (PSR sort gate): low polyreactivity

## QVQLVESGGGLVQAGGSLRLSCAASGIIFLWYAMGWYRQAPWKERELVAAISRTGSSTYYADSVKGRFTISRDNAKNTVYLQMNSLKPEDTAVYYCAAAYYSKRSWRFDYWGQGTQVTVSS
  polyreactivity (PSR sort gate): high polyreactivity

## QVQLVESGGGVVQAGGSLRLSCAASGFTFGVYAMRGYRQAPGKERELVAAISSRGGSTYYADSVKGRFTISRDNPTNPVYLQMNSLKPEDTAVYYCAKRLGNTVGKDDYWGQGTQVTVSS
  polyreactivity (PSR sort gate): low polyreactivity

## QVQLVESGGGLVQAGGSLRLSCAASGSTLGYYAMGWYRQAPGKERELVATITRSGGNTYYADSVKGRFTISRDNAKNTVYLQMNSLKPEDTAVYYCAARRLYGSQRGYWGQGTQVTVSS
  polyreactivity (PSR sort gate): high polyreactivity

## QVQLVESGGGLVQAGGSLRLSCAASGSIFAYNAMGWYRQAPGKEREFVAVITRSDDSTYADSVKGRFTISRDNAKNTVYLQMNSLKPEDTAVYYCAAEYYETPYASLGYDYWGQGTQVTVSS
  polyreactivity (PSR sort gate): low polyreactivity

## QVQLVESGGGLVQAGGSLRLSCAASGTTFARNAMGWYRQAPGKERELVAVISYSGGSSYADSVKGRFTISRDNAKNTVYFHMKSLKPEVTAVYYCAARAWYPSRYDFWGQGTQVIVSS
  polyreactivity (PSR sort gate): high polyreactivity

## QVQLVESGGGFVQAGGSLRLSCAASGNTFAGNAMGGYRQAPGKERELDAAISRSGVTTRYADSVKGRFTISRDNAKNTVYFQMKSLKPEDTAVSYCNADPRLRETRDYWGQVTQVTVSS
  polyreactivity (PSR sort gate): high polyreactivity

## QVQLVESGGGLVQAGGSLRLSCAASGIIFLDNAMGWYRQAPGKERELVADITSSGGSTYYADSVKGRFTISRDNAKNTVSLQMNSLKPEDTAVYYCAATRPSYNDAESDYWGQGTQVTVSS
  polyreactivity (PSR sort gate): low polyreactivity

## QVQLVESGGGLVQAGGSLRLSCAASGSTFAYYAMGWYRQAPGKERELVARITASGGRTYYADSVKGRFTISRDNAKNTVYLQMNSLKPEDTAVYYCAKGRYVEVSYGAHYDYWGQGTQVTVSS
  polyreactivity (PSR sort gate): low polyreactivity

## QVQLVESGGRLVQAGGSLRLSCAASGSTFQYNAMGWYRQAPGKERELVAAISLSGGSTYYADSVKGRFTISRDNAKNRVYLQMNSLKPEDTAVYYCAARQWYRYKVRFDYWGQGTQVTVSS
  polyreactivity (PSR sort gate): high polyreactivity

## QVQLVESGGGLVQAGGSLRLSCAASGIIFVKYVMGWYRQAPGKERELVAAISLGGGSTYYADSVKGRFTISRDNAKNTVYLQMNSLKPEDTAVYYCAAVRWTSRSRYDYWGQGTQVTVSS
  polyreactivity (PSR sort gate): high polyreactivity

## QVQLVESGGGLVQAGGSLRLSCAASGSIFNRNAMGWYRQARGKERELVAAITGSGGRTYYADSVKGRFTISRDNAKNTVYLQMNSLKPEDTAVYYCAARWGYYRYYIFDYWGQGTQVTVSS
  polyreactivity (PSR sort gate): high polyreactivity

## QVQLVESGGGLVQAGGSLRLSCAASGYTFNYYAMGWSRQAPGKEREFVASTYADSVKGRFTISRDNAKNTVYLQMNSLKPEDTAVYYCAAEGSYPAYDYWGQGTQVTVSS
  polyreactivity (PSR sort gate): low polyreactivity

## QVQLVESGGGLVQAGGSLRLSCAASGRTFDLYAMGWYRQAPGKERELVAAITKGGGSTYYADSVKGRFTISRDNAKNTVYLQMNSLKPEDTAVYYCAARFYYPWLYLFDSWGQGTQVTVSS
  polyreactivity (PSR sort gate): high polyreactivity

## QVQLVESGGGLVQAGGSLRLSCAASGFIFWPYAMGWYRQAPGKERELVAAITTGGSTNYADSVKGRFTISRDNAKNTVYLQMNSLKPEDTAVYYCAKGYYFGYYEFDYWGQGTQVTVSS
  polyreactivity (PSR sort gate): high polyreactivity

## QVQLVESGGGLVQAGGSLRLNCAASGGIFRGYAMVWYRQAPGKERELVATITYSGTSTYYADSVKGRFTISRDYAKNTVYLQMNSLKPEYTAVYYCNADWWFKYDYWGQGTQVTVSS
  polyreactivity (PSR sort gate): low polyreactivity

## QVQLVESGGGLVQAGGSLRLSCAASGSTFSANTMGWYRQAPGKERELVAGITNTGDTYYADSVKGRFTISRDNAKNTVYFQMNSLKPEDTAVYYCAADSWRRTDGAYWSTVYYWGQGTQVTVSS
  polyreactivity (PSR sort gate): low polyreactivity

## QVQLEESGGGLVQAGRSLRFSCAASGRIFPWYTMGWYRPAPGKERELVAVISSGGRTHYADSVKGRFTISRDNAKNTVYLQMNSLKPEDTAVYYCAGESRYQRYDYWRQGTQVTVSS
  polyreactivity (PSR sort gate): high polyreactivity

## QVQLVESGGGLVQAGGSLRLSCAASGSIFYRNAMGWYRQAPGKERELVAAISSDGSTNYADSVKGRFTISRDNAKNTVYLQMNSLKPEDTAVSYCAAPWTQILDYWGQGTQVTVSS
  polyreactivity (PSR sort gate): low polyreactivity

## QVQLVESGGGLVQAGGSLRLSCAASGILFGGYVMGWDRQAPGKERELVAAISRGGGITYYADSVKGRFTISRDNAKNTVYLQMNSLKPEDPAVYYCNAGVYAGQTGYDYWGQGTQVTVSS
  polyreactivity (PSR sort gate): high polyreactivity

## QVQLVESGGGLVQAGGSLRLSCAASGRTFYSNAMGWNRQAPGKERELVATITLSGGSTDYADSVKGRFTISRDNAKNTVYLQMNSLKPEDTAVYYCNADTDVHLIMGYWGQVTQVTVSS
  polyreactivity (PSR sort gate): low polyreactivity

## QVQLVESGGGLVQAGGSLRLSCAASGFTLDVYVMGWYRPAPGKERELVAAIRDSDDDTSYADSVKGRFTISRDNAKNTVYLQMNSLKPEDTAVYYCAVDYPTQPWGYYLLMDYWGQGTQVTVSS
  polyreactivity (PSR sort gate): low polyreactivity

## QVQLVESGGGLVQAGGSLRLSCAASGRTFVVNAMGWYRQAPGKERELVAAIYADSVKGRFTISRDNEKNTVYLQMNSLKPEDTAVYYCAASGGTWVNYRPEYDYWGQGTQVTVSS
  polyreactivity (PSR sort gate): low polyreactivity

## QVQLVESGGGLVQAGGSLRLSCAASGRTFNGYAMGWYRQAPGKERELVASISWSGGRTYYADSVKGRFTISRDNAKNTVYFQMNSLKPEDTAVYYCAATFVNVVGYDYWGQGTQVTVST
  polyreactivity (PSR sort gate): high polyreactivity

## QVQLVESGGGLVQAGGSLRLSCAASGSIFRAYAMGWYRQAPGKERELVAAINWTDGSTYYADSVKGRFTISRDNAKNTVYLQMNSLKPEDTAVYYCAKDSIARHNYWGQGTQVTVSS
  polyreactivity (PSR sort gate): low polyreactivity

## QVQLVESGGGLVQAGGSLRLSCAASGRIFIKNAMGWNRQAPGKERELVAAISDSGDSTYYADSVKGRFTISRDNAKNSVYLQMNSLKPEDTAVYYCAADGADHRSEMYYWGQGTQVTVSS
  polyreactivity (PSR sort gate): low polyreactivity

## QVQLVESGGGLVQAGGRLRLSCAASGRTVNQYAMGWYRQAPGKERELVAAISWSGGRTYYADSVKGRFTISRDNDKNTDYLQMNSLKPEDTAVYYCNKLTRDGRKEDYWGQGTQVTVSS
  polyreactivity (PSR sort gate): high polyreactivity
